# The supplement of paper PMC7125110
# ± gives the standard error. Variants at the floor of the assay were thinned out.
# B1: glmS ribozyme (parent)
# chain: AUAAAAGCGCCAGAACUACAGAAAUGUAGUUGACGAGGAGGAGGUUUAUCGAAUUUUCGGCGGAUGCCUCCAAA
# Columns and labels:
# Settings in all cases: with glucosamine-6-phosphate
# [1] = variants of: B1; test: self-cleavage kobs at 640 uM GlcN6P; higher = faster cleavage; RNA array
# Summary of the method: (§1)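 Glucosamine-6-phosphate in HEPES/KCl/Mg(OAc)2 buffer, at 40 μM to 10 mM, was flowed over barcoded ribozyme variants transcribed in situ by E. coli RNA polymerase on sequenced MiSeq chips. Tracking was through a hybridised Cy3 probe at 37 °C. kobs, kcat and KM came from exponential decay fits and weighted Michaelis–Menten fits of normalised per-tile medians.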
# [2] = variants of: B1; test: self-cleavage kobs at 10000 uM GlcN6P; higher = faster cleavage; RNA array
# Summary of the method: as §1
# [3] = variants of: B1; test: self-cleavage kobs at 2500 uM GlcN6P; higher = faster cleavage; RNA array
# Summary of the method: as §1
Variant,self-cleavage kobs at 640 uM GlcN6P [1],self-cleavage kobs at 10000 uM GlcN6P [2],self-cleavage kobs at 2500 uM GlcN6P [3]
G40U U55A C71A,0.00279 ± 0.00086 s⁻¹,0.0227 ± 0.0049 s⁻¹,
G9U C10G G13C A48C C50U,< 1e-05 s⁻¹,,< 1e-05 s⁻¹
G13A U30G G41U U46C G63C,< 1e-05 s⁻¹,,< 1e-05 s⁻¹
A14G C16A G40A,0.000169 ± 3e-05 s⁻¹,,0.00023 ± 6.8e-05 s⁻¹
G7A A15U G51C A64G,< 1e-05 s⁻¹,,
G13U A15G G51C,< 1e-05 s⁻¹,,< 1e-05 s⁻¹
G32C G35A A64C C70A,< 1e-05 s⁻¹,,< 1e-05 s⁻¹
G41A A48C A52U,< 1e-05 s⁻¹,,
C8A G13U G43A G44U G63U,< 1e-05 s⁻¹,,
G7U U30G G63U,< 1e-05 s⁻¹,,
A36U C50G G66U,0.00107 ± 0.0003 s⁻¹,,
C34U G44C G63U A64C,< 1e-05 s⁻¹,,
A42C U47G U57C,< 1e-05 s⁻¹,,< 1e-05 s⁻¹
A12G U47G C50A C68G,0.000111 ± 4.4e-05 s⁻¹,,
C11G A14U A36U U46A C61G G63A,< 1e-05 s⁻¹,,< 1e-05 s⁻¹
U30G U31G U49G U69G,7.71e-05 ± 2.2e-05 s⁻¹,,6.45e-05 ± 2.7e-05 s⁻¹
A15U G41C G44U A48U U49A G51U C67U,< 1e-05 s⁻¹,,
G43A A64U C67A,< 1e-05 s⁻¹,,
U47A U49G,3.82e-05 ± 1.4e-05 s⁻¹,,7.57e-05 ± 1.8e-05 s⁻¹
G37C U57A A64C C71A,< 1e-05 s⁻¹,,< 1e-05 s⁻¹
A42U U69C C70A,0.0004 ± 0.00011 s⁻¹,,0.000308 ± 9.7e-05 s⁻¹
C10G A12C G13A A14G A39U C70G,< 1e-05 s⁻¹,,
U31A A36C G37U U49C,< 1e-05 s⁻¹,,

Variant,self-cleavage kobs at 640 uM GlcN6P [1],self-cleavage kobs at 10000 uM GlcN6P [2],self-cleavage kobs at 2500 uM GlcN6P [3]
A12G G37A A48G G63C,< 1e-05 s⁻¹,,
A36G A39C A52U U57A,< 1e-05 s⁻¹,,
U30G C34A C68A,< 1e-05 s⁻¹,,
A15G G66U C71U,0.000559 ± 0.00011 s⁻¹,,0.00142 ± 0.00041 s⁻¹
G32A A36C U55G C67G C68G,0.000126 ± 3.4e-05 s⁻¹,,4.75e-05 ± 1.2e-05 s⁻¹
C8A G32A G66U,< 1e-05 s⁻¹,,
A6U A12U G37U,< 1e-05 s⁻¹,,
A33C G41U U47G U65C C68A,< 1e-05 s⁻¹,,
C10G C58G G62C,< 1e-05 s⁻¹,,
G29A G38A U65G,< 1e-05 s⁻¹,,< 1e-05 s⁻¹
G7U C16U U30G,< 1e-05 s⁻¹,,
A64C C68A C70G,< 1e-05 s⁻¹,,< 1e-05 s⁻¹
U30A U69G C71A,0.00266 ± 0.00078 s⁻¹,,
C50A G51U,< 1e-05 s⁻¹,< 1e-05 s⁻¹,
A15C C16G G43U U56C A64U C68A,< 1e-05 s⁻¹,,
A12U G29A U31C,0.000169 ± 4.1e-05 s⁻¹,0.000943 ± 0.00018 s⁻¹,0.00041 ± 0.00015 s⁻¹
C10G C11A A39U,< 1e-05 s⁻¹,,< 1e-05 s⁻¹
C10U A14U G32A A42C,< 1e-05 s⁻¹,,
A15U G35U A39C,< 1e-05 s⁻¹,,< 1e-05 s⁻¹
A14G U54A C58A C68U,9.22e-05 ± 1.9e-05 s⁻¹,,0.000131 ± 2.9e-05 s⁻¹
U46A U54G C70A,5.86e-05 ± 2.1e-05 s⁻¹,,0.000289 ± 7.5e-05 s⁻¹
U47C U49G C50U,< 1e-05 s⁻¹,,< 1e-05 s⁻¹
G35C A36C A42C G43C G51A,< 1e-05 s⁻¹,,< 1e-05 s⁻¹

Variant,self-cleavage kobs at 640 uM GlcN6P [1],self-cleavage kobs at 10000 uM GlcN6P [2],self-cleavage kobs at 2500 uM GlcN6P [3]
U47A U56A C70U,0.00117 ± 0.00047 s⁻¹,,0.00157 ± 0.0006 s⁻¹
A33U C34U C70G,0.00168 ± 0.00079 s⁻¹,,
A15C C16U U45A,0.000911 ± 0.00018 s⁻¹,,0.00147 ± 0.00058 s⁻¹
C10A U69A,0.00013 ± 1.9e-05 s⁻¹,,3.89e-05 ± 1.5e-05 s⁻¹
G38C G43U A64C,< 1e-05 s⁻¹,,< 1e-05 s⁻¹
U30G U46C U47G,8.33e-05 ± 2.2e-05 s⁻¹,,
U30C G32U C34G G51U,< 1e-05 s⁻¹,,< 1e-05 s⁻¹
C34A G51A A52G,< 1e-05 s⁻¹,,< 1e-05 s⁻¹
G7A A39G A64C C71U,< 1e-05 s⁻¹,,< 1e-05 s⁻¹
U31C C50G G59A C71G,7.63e-05 ± 1.9e-05 s⁻¹,,
A15G U49G U65G C70A,0.00349 ± 0.0014 s⁻¹,,
U54A G59U C68U C70G,< 1e-05 s⁻¹,,
U54A U65A C68G,5.85e-05 ± 2.8e-05 s⁻¹,,0.000194 ± 6.9e-05 s⁻¹
G13A G32C G43C C68G,7.7e-05 ± 2.2e-05 s⁻¹,,0.000154 ± 5e-05 s⁻¹
G32A U65A C71U,5.38e-05 ± 1.4e-05 s⁻¹,,9.54e-05 ± 2.4e-05 s⁻¹
A14G C16U U45C,0.000986 ± 0.00024 s⁻¹,,0.00371 ± 0.00065 s⁻¹
G9C A64U,< 1e-05 s⁻¹,,
G13C A14C C71U,4.16e-05 ± 1.1e-05 s⁻¹,,0.000105 ± 1.7e-05 s⁻¹
G9A C10G G44A C70U,< 1e-05 s⁻¹,,< 1e-05 s⁻¹
A12C A14C A48U G60A,< 1e-05 s⁻¹,,
U31G G37C G38C,< 1e-05 s⁻¹,,< 1e-05 s⁻¹
A6U C10U G32C,< 1e-05 s⁻¹,,
